Experimental data as given in publication doi:10.1101/2025.10.14.682086v1.

Key:
[1] = substrate: CC1=CC(=O)c2ccccc2C1=O; experiment: purified protein, by the assay type; details: 25.0 °C
[2] = substrate: NC(=O)C1=CN([C@@H]2O[C@H](COP(=O)(O)OP(=O)(O)OC[C@H]3O[C@@H](n4cnc5c(N)ncnc54)[C@H](O)[C@@H]3O)[C@@H](O)[C@H]2O)C=CC1; experiment: purified protein, by the assay type; details: 25.0 °C

B1: Mc-NDH2 (Methylococcus capsulatus str. Bath) (protein)
chain: MQRKRNEQPLPRILIIGGGAGGLELATKLGRTLGKKGKAQVTLIDAHPTHIWKPLLHEVAAGTMDVNDDELDYLAQANACHFRFVLGRMSGLDRVAKQVKLAPMTNAAGEEVIPACSYPYDILVIAVGSVCNDFGVPGVAQNCIFLDTTEEAQQFHRRLLEAYMRAHAMGGAKQPGQLDVAIVGGGATGIELSAQLHQATRLLAAYGLDNVKPSDIKIHLIEAAPRLLPELPPRLSESTVKQLLALDVQLHLGERVVEARPDGVLTHTGKFIPATLKVWAAGVKAPDFLAQTDLETNRLNQVVVRQTLQTTRDDHIFAIGDCSACPWPERNTTVPPRAQSAHQQASTAYENILRLLAGKAPVDYRYRDYGSLVSLGKYSTVGNLMGNLLGSVMIEGVIARLVYLSLYKMHQYALFGPLRVGLIMIAHFFSQKLRPKIKLH
[1]
  Km: 12.9 ± 5.4 µM
  kcat: 3.9 ± 0.4 s⁻¹
[2]
  Km: 9.5 ± 5.3 µM
  kcat: 9.08 ± 1.1 s⁻¹

B2: Ec-NDH2 (Escherichia coli K-12) (protein)
chain: TTPLKKIVIVGGGAGGLEMATQLGHKLGRKKKAKITLVDRNHSHLWKPLLHEVATGSLDEGVDALSYLAHARNHGFQFQLGSVIDIDREAKTITIAELRDEKGELLVPERKIAYDTLVMALGSTSNDFNTPGVKENCIFLDNPHQARRFHQEMLNLFLKYSANLGANGKVNIAIVGGGATGVELSAELHNAVKQLHSYGYKGLTNEALNVTLVEAGERILPALPPRISAAAHNELTKLGVRVLTQTMVTSADEGGLHTKDGEYIEADLMVWAAGIKAPDFLKDIGGLETNRINQLVVEPTLQTTRDPDIYAIGDCASCPRPEGGFVPPRAQAAHQMATCAMNNILAQMNGKPLKNYQYKDHGSLVSLSNFSTVGSLMGNLTRGSMMIEGRIARFVYISLYRMHQIALHGYFKTGLMMLVGSINRVIRPRLKLH
[1]
  Km: 15.6 ± 8.5 µM
  kcat: 107 ± 13.1 s⁻¹
[2]
  Km: 1.7 ± 1.09 µM
  kcat: 43.6 ± 4 s⁻¹
